Our source for the IC50 and Kd values is patent US20090042291A1 (published 2009).

Assay [1] deals with human V158 FcγRIIIa, extracellular region with C-terminal 6xHis-tag and GST-tag (human, UniProt P08637 17-208). Kind of assay: AlphaScreen competition. (Alpha assays give light when donor and acceptor beads are brought close together.)
Assay [2] has as its target A327D. As to the kind of experiment: Biacore. (In SPR one partner is held on a chip, and binding of the other changes the refractive index at the surface.)
Assay [3] has as its target H268Q. Kind of assay: Biacore.
The target of assay [4] is A327G. As to the kind of experiment: Biacore.
Assay [5] concerns the target H268N. As to the kind of experiment: Biacore.
Assay [6] addresses S298D. Kind of assay: Biacore.
In assay [7] the target is A327Q. Kind of assay: Biacore.
Assay [8] deals with S267E/N325L. As to the kind of experiment: Biacore.
For assay [9], the target named is A327N. As to the kind of experiment: Biacore.
The target of assay [10] is S267E/L328Y. As to the kind of experiment: Biacore.
Assay [11] has as its target H268D. Kind of assay: Biacore.
Assay [12] addresses P329E. Kind of assay: Biacore.
In assay [13] the target is L328F. Kind of assay: Biacore.
In assay [14] the target is H268E. Kind of assay: Biacore.
In assay [15] the target is T1, FcγRI (human, UniProt P12314 16-288).
T1 chain: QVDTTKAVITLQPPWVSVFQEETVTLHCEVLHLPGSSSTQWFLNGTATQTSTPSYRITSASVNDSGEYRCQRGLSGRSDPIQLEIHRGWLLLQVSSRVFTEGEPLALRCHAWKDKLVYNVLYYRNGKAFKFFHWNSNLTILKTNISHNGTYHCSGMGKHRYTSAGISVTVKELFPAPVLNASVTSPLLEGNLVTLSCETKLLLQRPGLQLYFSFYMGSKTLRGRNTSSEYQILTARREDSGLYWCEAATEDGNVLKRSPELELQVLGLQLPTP
As to the kind of experiment: Biacore.

For assay [16], the target named is T2, FcγRIIb (human, UniProt P31994 46-217).
T2 chain: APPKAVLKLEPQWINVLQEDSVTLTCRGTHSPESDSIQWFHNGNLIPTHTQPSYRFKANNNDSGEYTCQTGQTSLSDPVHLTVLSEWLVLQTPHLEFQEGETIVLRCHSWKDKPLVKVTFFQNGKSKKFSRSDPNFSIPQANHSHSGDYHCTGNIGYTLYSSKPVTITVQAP
As to the kind of experiment: Biacore.

By IC50 is commonly meant the concentration needed to halve the response being measured. A higher IC50 goes with weaker potency in that assay. By Kd is commonly meant the constant that tells how readily two partners part at equilibrium.

B1: alemtuzumab S239D (antibody)
chain 1: not shown
chain 2: not shown
As to B1, the half-inhibitory concentration (IC50) in [1] came to 0.4 nM.

B2: FcγRIIaR (receptor)
chain: QAAAPPKAVLKLEPPWINVLQEDSVTLTCQGARSPESDSIQWFHNGNLIPTHTQPSYRFKANNNDSGEYTCQTGQTSLSDPVHLTVLSEWLVLQTPHLEFQEGETIMLRCHSWKDKPLVKVTFFQNGKSQKFSRLDPTFSIPQANHSHSGDYHCTGNIGYTLFSSKPVTITVQVPSMGSSSPMG
Regarding B2, the dissociation constant (Kd) in [2] was 536 nM; in assay [3] it was 544 nM; in assay [4] it was 2690 nM; in [5], 481 nM; in assay [6], 592 nM; in assay [7], 1350 nM. The Kd in [8] worked out at 20.7 nM; in assay [9], 1410 nM; in assay [10] it was 7.06 nM; in assay [11], 205 nM; in assay [12] it was 10000 nM; in assay [13] it was 166 nM. In assay [14], this molecule yielded a dissociation constant Kd of 269 nM.

B3: S267G (antibody)
chain 1: not shown
chain 2: DIVMTQSPATLSLSPGERATLSCRSSKSLQNVNGNTYLYWFQQKPGQSPQLLIYRMSNLNSGVPDRFSGSGSGTEFTLTISSLEPEDFAVYYCMQHLEYPITFGAGTKLEIKRTVAAPSVFIFPPSDEQLKSGTASVVCLLNNFYPREAKVQWKVDNALQSGNSQESVTEQDSKDSTYSLSSTLTLSKADYEKHKVYACEVTHQGLSSPVTKSFNRGEC
On to B3, for which the equilibrium dissociation constant (Kd) worked out at 0.626 nM in assay [15] and 1450 nM in assay [16].

B4: alemtuzumab, wild type, expressed in 293T cells (antibody)
chain 1: not shown
chain 2: not shown
Take B4: in [1], the IC50 is 4.6 nM.
